In patent US20190382493A1 (published 2019):
Changes are numbered by the printed parent chain. Like-named read-outs stand apart in the source and are kept apart here.

B1: anti-PDL1 antibody C5H9v2 (antibody, V domains shown)
VH: EVQLLESGGGLVQPGGSLRLSCAASGFTFSSYAMSWVRQAPGKGLEWVSSIWRNGIVTVYADSVKGRFTISRDNSKNTLYLQMNSLRAEDTAVYYCAKWSAAFDYWGQGTLVTVSS
VL: DIQMTQSPSSLSASVGDRVTITCRASQSISSYLNWYQQKPGKAPKLLIYAASSLQSGVPSRFSGSGSGTDFTLTISSLQPEDFATYYCQQDNGYPSTFGGGTKVEIKR
B2: anti-PDL1 activatable antibody PL07-2001-C5H9v2 (antibody)
VH: B1 VH
VL: QGQSGSGIALCPSHFCQLPQTGGGSSGGSGGSGGISSGLLSGRSDNHGGSDIQMTQSPSSLSASVGDRVTITCRASQSISSYLNWYQQKPGKAPKLLIYAASSLQSGVPSRFSGSGSGTDFTLTISSLQPEDFATYYCQQDNGYPSTFGGGTKVEIKR
B3: C5H9 mIgG2a (antibody, V domains shown)
VH: B1 VH
VL: B1 VL with A50Y, S53T, G100Q
B4: anti-PDL1 antibody C5H9 (antibody, V domains shown)
VH: B1 VH
VL: B1 VL with A50Y, S53T, G100Q

What was measured:
[1] = biological target: T1, cyno PDL1 (adsorbed in blockade assays) (cynomolgus monkey, UniProt G7PSE7 19-239); assay: ELISA blocking of cyno B7-1 binding to PDL1; cyno B7-1 blockade
human PDL1 (R&D Systems) [2] = biological target: T2, human PDL1 (R&D Systems) (human, UniProt Q9NZQ7 19-239); assay: ELISA blocking of human B7-1 binding to PDL1; hB7-1 blockade
human PDL1 (R&D Systems) [3] = biological target: T2, human PDL1 (R&D Systems); assay: ELISA blocking of human PD-1 binding to PDL1; hPD-1 blockade
[4] = biological target: T3, cynomolgus monkey (cyno) PDL1-Fc (Sino biological) (cynomolgus monkey, UniProt G7PSE7 19-239); assay: ELISA
[5] = biological target: T4, mouse PDL1-Fc (R & D Systems) (mouse, UniProt Q9EP73 19-238); assay: ELISA
[6] = biological target: T5, human PDL1-Fc (R & D Systems) (human, UniProt Q9NZQ7 19-239); assay: ELISA
[7] = biological target: T1, cyno PDL1 (adsorbed in blockade assays); assay: ELISA blocking of cyno PD-1 binding to PDL1; cyno PD1 blockade
[8] = biological target: T3, cynomolgus monkey (cyno) PDL1-Fc (Sino …); assay: ELISA; remark: listed apart in the source
[9] = biological target: T4, mouse PDL1-Fc (R & D Systems); assay: ELISA; remark: listed apart in the source
[10] = biological target: T5, human PDL1-Fc (R & D Systems); assay: ELISA; remark: listed apart in the source

T2 sequence (Q9NZQ7 19-239): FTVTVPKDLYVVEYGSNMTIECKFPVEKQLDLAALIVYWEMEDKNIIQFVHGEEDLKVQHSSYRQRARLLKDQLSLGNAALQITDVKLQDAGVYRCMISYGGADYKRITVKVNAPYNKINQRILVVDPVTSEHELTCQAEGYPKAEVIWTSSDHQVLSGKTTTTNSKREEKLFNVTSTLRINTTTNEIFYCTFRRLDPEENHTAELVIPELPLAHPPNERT
T5 sequence (Q9NZQ7 19-239): as above
T4 sequence (Q9EP73 19-238): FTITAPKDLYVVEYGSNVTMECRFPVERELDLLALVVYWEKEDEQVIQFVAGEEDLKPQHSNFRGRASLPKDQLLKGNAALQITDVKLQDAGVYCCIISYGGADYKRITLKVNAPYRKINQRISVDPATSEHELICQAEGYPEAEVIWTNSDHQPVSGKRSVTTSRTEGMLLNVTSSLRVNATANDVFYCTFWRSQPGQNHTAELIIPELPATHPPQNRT
T3 sequence (G7PSE7 entry or part of it): as the sequence (Q9NZQ7 19-239) above, with A33T, A34S, S62N, R68Q, Q82R, F173L, T185A, T192I, H215L counted along it
T1 sequence (G7PSE7 entry or part of it): as the sequence (Q9NZQ7 19-239) above, with A33T, A34S, S62N, R68Q, Q82R, F173L, T185A, T192I, H215L counted along it

Binder | IC50 [1] | IC50 (human PDL1 (R&D Systems) [2]) | IC50 (human PDL1 (R&D Systems) [3]) | Kd [4] | Kd [5] | Kd [6] | IC50 [7] | Kd [8] | Kd [9] | Kd [10]
B1 | 0.1 nM | 0.5 nM | 0.7 nM | 0.544 nM | 0.464 nM | 0.272 nM | – | – | – | –
B2 | 9.6 nM | 11.7 nM | 39.8 nM | – | – | – | 7 nM | – | – | –
B3 | – | – | – | – | – | – | – | 0.399 nM | 0.666 nM | 0.515 nM
B4 | – | – | – | 0.398 nM | 0.475 nM | 0.286 nM | – | – | – | –
